Experimental data: article PMC5177888, “An Adaptation To Life In Acid Through A Novel Mevalonate Pathway” (Scientific Reports, 2016)

B1: mevalonate 3,5-bisphosphate decarboxylase (Ta0893) from Thermoplasma acidophilum, recombinant, full length, co-expressed with GroEL/GroES (enzyme, UniProt Q9HJS1 1-405, looked up)
chain: MDTAGMEHSVSWISSNSDELILRSWISSRMDIAELHRAGDDIKEMMKSEGYYSEPSKYEAELSDGNITFAYSYPIKAFEKFLGYYDRENRIAFNPSISMRTDFSFCLAACRYRKNGKTDTVVLDGYADNKYYKKAKFALDKFRSEYSINGSFDFYIKRYRRYQKAKGLSESSAVAAAVSRALISNVFGDDAAKDDIFVSRYARLVSGSGTRAAHDGISMWLSYPGMDSRDCVAFKVGKSNENLNYGVFPKYSDVATDNAHSIAVNSVFYGTWVSEKFSNVKRLISDHFDINDLLKIGENDMLRLNSILMSGGLIIQTPDSLRILKEILKFKSKNEGFYFTADTGPSIAIFSFDRSLIDEFRENVNDEYIEGSYDFKGYNNRMRDFIREAQEYFTQTPGEDEEDRL
notes: Ta0893, mevalonate 3,5-bisphosphate decarboxylase, Thermoplasma acidophilum; NCBI WP_010901303.1; full-length protein; predicted monomer 46.3 kDa; gene codon optimized and synthesized, cloned in pET28a(+) between NdeI and XhoI; The Ni-NTA eluate may still hold E. coli proteins such as the co-expressed chaperones; also called MBD; recombinant Ta0893; source: E. coli BL21(DE3) Gold, co-expressed …
B2: mevalonate 3,5-bisphosphate decarboxylase (Ta0893), native, in Thermoplasma acidophilum lysate (enzyme, UniProt Q9HJS1 1-405, looked up)
chain: B1 chain
notes: Ta0893, mevalonate 3,5-bisphosphate decarboxylase, Thermoplasma acidophilum; NCBI WP_010901303.1; predicted monomer 46.3 kDa; followed as MBD activity in the lysate; also called MBD; native MBD; source: endogenous, T. acidophilum cell-free lysate

Columns and labels:
[1] = target: the molecule itself; assay: SEC; recombinant Ta0893 (co-expressed with GroEL/ES) mixed with Biorad gel filtration standard, Superdex S200 10/300 GL, 50 mM sodium phosphate pH 6.5, 500 mM NaCl; fractions assayed for MBD activity; apparent molecular weight from the activity profile
[2] = target: the molecule itself; assay: SEC; T. acidophilum cell-free lysate mixed with Biorad gel filtration standard, Superdex S200 10/300 GL, 50 mM sodium phosphate pH 6.5, 500 mM NaCl; fractions assayed for MBD activity; apparent molecular weight from the activity profile

| Protein | stoichiometry N [1] | stoichiometry N [2] |
| --- | --- | --- |
| B1 | 2 | – |
| B2 | – | 2 |
